Measured values from patent US20190183976A1 (GPCR THERAPEUTICS, published 2019).
Where two headings read alike, the source gives them in different places.

B1: ADORA3-VC (receptor, human, UniProt P0DMS8 1-318, looked up)
chain: MPNNSTALSLANVTYITMEIFIGLCAIVGNVLVICVVKLNPSLQTTTFYFIVSLALADIAVGVLVMPLAIVVSLGITIHFYSCLFMTCLLLIFTHASIMSLLAIAVDRYLRVKLTVRYKRVTTHRRIWLALGLCWLVSFLVGLTPMFGWNMKLTSEYHRNVTFLSCQFVSVMRMDYMVYFSFLTWIFIPLVVMCAIYLDIFYIIRNKLSLNLSNSKETGAFYGREFKTAKSLFLVLFLFALSWLPLSIINCIIYFNGEVPQLVLYMGILLSHANSMMNPIVYAYKIKKFKETYLLILKACVVCHPSDSLDTSIEKNSE
notes: whole, on cells; Adenovirus-expressed in U-2 OS cells; not shown: VC155, C-terminal fragment of Venus
B2: GALR1-VC (receptor, human, UniProt P47211 1-349, looked up)
chain: MELAVGNLSEGNASWPEPPAPEPGPLFGIGVENFVTLVVFGLIFALGVLGNSLVITVLARSKPGKPRSTTNLFILNLSIADLAYLLFCIPFQATVYALPTWVLGAFICKFIHYFFTVSMLVSIFTLAAMSVDRYVAIVHSRRSSSLRVSRNALLGVGCIWALSIAMASPVAYHQGLFHPRASNQTFCWEQWPDPRHKKAYVVCTFVFGYLLPLLLICFCYAKVLNHLHKKLKNMSKKSEASKKKTAQTVLVVVVVFGISWLPHHIIHLWAEFGVFPLTPASFLFRITAHCLAYSNSSVNPIIYAFLSENFRKAYKQVFKCHIRKDSHLSDTKESKSRIDTPPSTNCTHV
notes: as for B1
B3: TACR3-VC (receptor, human, UniProt P29371 1-465, looked up)
chain: MATLPAAETWIDGGGGVGADAVNLTASLAAGAATGAVETGWLQLLDQAGNLSSSPSALGLPVASPAPSQPWANLTNQFVQPSWRIALWSLAYGVVVAVAVLGNLIVIWIILAHKRMRTVTNYFLVNLAFSDASMAAFNTLVNFIYALHSEWYFGANYCRFQNFFPITAVFASIYSMTAIAVDRYMAIIDPLKPRLSATATKIVIGSIWILAFLLAFPQCLYSKTKVMPGRTLCFVQWPEGPKQHFTYHIIVIILVYCFPLLIMGITYTIVGITLWGGEIPGDTCDKYHEQLKAKRKVVKMMIIVVMTFAICWLPYHIYFILTAIYQQLNRWKYIQQVYLASFWLAMSSTMYNPIIYCCLNKRFRAGFKRAFRWCPFIKVSSYDELELKTTRFHPNRQSSMYTVTRMESMTVVFDPNDADTTRSSRKKRATPRDPSFNGCSRRNSKSASATSSFISSPYTSVDEYS
notes: as for B1
B4: CALCR-VC (receptor, human, UniProt P30988 25-474, looked up)
chain: AFSNQTYPTIEPKPFLYVVGRKKMMDAQYKCYDRMQQLPAYQGEGPYCNRTWDGWLCWDDTPAGVLSYQFCPDYFPDFDPSEKVTKYCDEKGVWFKHPENNRTWSNYTMCNAFTPEKLKNAYVLYYLAIVGHSLSIFTLVISLGIFVFFRSLGCQRVTLHKNMFLTYILNSMIIIIHLVEVVPNGELVRRDPVSCKILHFFHQYMMACNYFWMLCEGIYLHTLIVVAVFTEKQRLRWYYLLGWGFPLVPTTIHAITRAVYFNDNCWLSVETHLLYIIHGPVMAALVVNFFFLLNIVRVLVTKMRETHEAESHMYLKAVKATMILVPLLGIQFVVFPWRPSNKMLGKIYDYVMHSLIHFQGFFVATIYCFCNNEVQTTVKRQWAQFKIQWNQRWGRRPSNRSARAAAAAAEAGDIPIYICHQELRNEPANNQGEESAEIIPLNIIEQESSA
notes: as for B1
B5: CHRM1-VC (receptor, human, UniProt P11229 1-460, looked up)
chain: MNTSAPPAVSPNITVLAPGKGPWQVAFIGITTGLLSLATVTGNLLVLISFKVNTELKTVNNYFLLSLACADLIIGTFSMNLYTTYLLMGHWALGTLACDLWLALDYVASNASVMNLLLISFDRYFSVTRPLSYRAKRTPRRAALMIGLAWLVSFVLWAPAILFWQYLVGERTVLAGQCYIQFLSQPIITFGTAMAAFYLPVTVMCTLYWRIYRETENRARELAALQGSETPGKGGGSSSSSERSQPGAEGSPETPPGRCCRCCRAPRLLQAYSWKEEEEEDEGSMESLTSSEGEEPGSEVVIKMPMVDPEAQAPTKQPPRSSPNTVKRPTKKGRDRAGKGQKPRGKEQLAKRKTFSLVKEKKAARTLSAILLAFILTWTPYNIMVLVSTFCKDCVPETLWELGYWLCYVNSTINPMCYALCNKAFRDTFRLLLLCRWDKRRWRKIPKRPGSVHRTPSRQC
notes: as for B1
B6: ADCYAP1R1-VC (receptor, human, UniProt P41586 21-468, looked up)
chain: MHSDCIFKKEQAMCLEKIQRANELMGFNDSSPGCPGMWDNITCWKPAHVGEMVLVSCPELFRIFNPDQVWETETIGESDFGDSNSLDLSDMGVVSRNCTEDGWSEPFPHYFDACGFDEYESETGDQDYYYLSVKALYTVGYSTSLVTLTTAMVILCRFRKLHCTRNFIHMNLFVSFMLRAISVFIKDWILYAEQDSNHCFISTVECKAVMVFFHYCVVSNYFWLFIEGLYLFTLLVETFFPERRYFYWYTIIGWGTPTVCVTVWATLRLYFDDTGCWDMNDSTALWWVIKGPVVGSIMVNFVLFIGIIVILVQKLQSPDMGGNESSIYLRLARSTLLLIPLFGIHYTVFAFSPENVSKRERLVFELGLGSFQGFVVAVLYCFLNGEVQAEIKRKWRSWKVNRYFAVDFKHRHPSLASSGVNGGTQLSILSKSSSQIRMSGLPADNLAT
notes: as for B1
B7: EDNRB-VC (receptor, human, UniProt P24530 27-442, looked up)
chain: EERGFPPDRATPLLQTAEIMTPPTKTLWPKGSNASLARSLAPAEVPKGDRTAGSPPRTISPPPCQGPIEIKETFKYINTVVSCLVFVLGIIGNSTLLRIIYKNKCMRNGPNILIASLALGDLLHIVIDIPINVYKLLAEDWPFGAEMCKLVPFIQKASVGITVLSLCALSIDRYRAVASWSRIKGIGVPKWTAVEIVLIWVVSVVLAVPEAIGFDIITMDYKGSYLRICLLHPVQKTAFMQFYKTAKDWWLFSFYFCLPLAITAFFYTLMTCEMLRKKSGMQIALNDHLKQRREVAKTVFCLVLVFALCWLPLHLSRILKLTLYNQNDPNRCELLSFLLVLDYIGINMASLNSCINPIALYLVSKRFKNCFKSCLCCWCQSFEEKQSLEEKQSCLKFKANDHGYDNFRSSNKYSSS
notes: as for B1
B8: APLNR-VC (receptor, human, UniProt P35414 1-380, looked up)
chain: MEEGGDFDNYYGADNQSECEYTDWKSSGALIPAIYMLVFLLGTTGNGLVLWTVFRSSREKRRSADIFIASLAVADLTFVVTLPLWATYTYRDYDWPFGTFFCKLSSYLIFVNMYASVFCLTGLSFDRYLAIVRPVANARLRLRVSGAVATAVLWVLAALLAMPVMVLRTTGDLENTTKVQCYMDYSMVATVSSEWAWEVGLGVSSTTVGFVVPFTIMLTCYFFIAQTIAGHFRKERIEGLRKRRRLLSIIVVLVVTFALCWMPYHLVKTLYMLGSLLHWPCDFDLFLMNIFPYCTCISYVNSCLNPFLYAFFDPRFRQACTSMLCCGQSRCAGTSHSSSGEKSASYSSGHSQGPGPNMGKGGEQMHEKSIPYSQETLVVD
notes: as for B1
B9: C5AR1-VC (receptor, human, UniProt P21730 1-350, looked up)
chain: MDSFNYTTPDYGHYDDKDTLDLNTPVDKTSNTLRVPDILALVIFAVVFLVGVLGNALVVWVTAFEAKRTINAIWFLNLAVADFLSCLALPILFTSIVQHHHWPFGGAACSILPSLILLNMYASILLLATISADRFLLVFKPIWCQNFRGAGLAWIACAVAWGLALLLTIPSFLYRVVREEYFPPKVLCGVDYSHDKRRERAVAIVRLVLGFLWPLLTLTICYTFILLRTWSRRATRSTKTLKVVVAVVASFFIFWLPYQVTGIMMSFLEPSSPTFLLLKKLDSLCVSFAYINCCINPIIYVVAGQGFQGRLRKSLPSLLRNVLTEESVVRESKSFTRSTVDTMAQKTQAV
notes: as for B1

Key:
[1] = target: T1, CXCR4-VN (human, UniProt P61073 1-352); experiment: BiFC, U-2 OS cells, CXCR4-VN & GPCRx-VC; score=(positive cells/total cells)x100
T1 construct: whole, on cells; Adenovirus-expressed in U-2 OS cells; also called CXCR4 fused with N-terminal fragment of Venus; not shown: VNm10, N-terminal fragment of Venus (VN154 variant with L46F and L64F)
Protocol: (§1) Images of about 200 cells from each well were analyzed with Multi-target analysis software in IN Cell Developer ToolBox (GE Healthcare, Waukesha, Wis.). Cell boundary was marked based on Hoechst signal, and fluorescence intensity per cell was measured. Cells with fluorescence intensities higher than background level were considered as BiFC positive cells. […] Positive cells were determined, and positive cell count ratio (“BiFC score”) was calculated as (positive cells/total cells)×100 (see Table 4 below).

[2] = target: T1, CXCR4-VN; experiment: as above; remark: listed apart in the source
Protocol: as §1

| Binder | BiFC score [1] | BiFC score [2] |
| --- | --- | --- |
| B1 | 43 | – |
| B2 | 60 | 60 |
| B3 | 33 | – |
| B4 | 53 | – |
| B5 | 24 | – |
| B6 | 23 | – |
| B7 | 41 | – |
| B8 | 63 | 63 |
| B9 | 42 | – |
